Experimental data published in paper PMC3760018 (European journal of immunology, 2013).

B1: recombinant C4BP α-chain WT (natural protein, human, UniProt P04003 49-597, looked up)
chain: NCGPPPTLSFAAPMDITLTETRFKTGTTLKYTCLPGYVRSHSTQTLTCNSDGEWVYNTFCIYKRCRHPGELRNGQVEIKTDLSFGSQIEFSCSEGFFLIGSTTSRCEVQDRGVGWSHPLPQCEIVKCKPPPDIRNGRHSGEENFYAYGFSVTYSCDPRFSLLGHASISCTVENETIGVWRPSPPTCEKITCRKPDVSHGEMVSGFGPIYNYKDTIVFKCQKGFVLRGSSVIHCDADSKWNPSPPACEPNSCINLPDIPHASWETYPRPTKEDVYVVGTVLRYRCHPGYKPTTDEPTTVICQKNLRWTPYQGCEALCCPEPKLNNGEITQHRKSRPANHCVYFYGDEISFSCHETSRFSAICQGDGTWSPRTPSCGDICNFPPKIAHGHYKQSSSYSFFKEEIIYECDKGYILVGQAKLSCSYSHWSAPAPQCKALCRKPELVNGRLSVDKDQYVEPENVTIQCDSGYGVVGPQSITCSGNRTWYPEVPKCEWETPEGCEQVLTGKRLMQCLPNPEDVKMALEVYKLSLEIEQLELQRDSARQSTLDKEL
B2: recombinant C4BP α-chain R120H (natural protein, human, UniProt P04003 49-597, looked up)
chain: NCGPPPTLSFAAPMDITLTETRFKTGTTLKYTCLPGYVRSHSTQTLTCNSDGEWVYNTFCIYKRCRHPGELHNGQVEIKTDLSFGSQIEFSCSEGFFLIGSTTSRCEVQDRGVGWSHPLPQCEIVKCKPPPDIRNGRHSGEENFYAYGFSVTYSCDPRFSLLGHASISCTVENETIGVWRPSPPTCEKITCRKPDVSHGEMVSGFGPIYNYKDTIVFKCQKGFVLRGSSVIHCDADSKWNPSPPACEPNSCINLPDIPHASWETYPRPTKEDVYVVGTVLRYRCHPGYKPTTDEPTTVICQKNLRWTPYQGCEALCCPEPKLNNGEITQHRKSRPANHCVYFYGDEISFSCHETSRFSAICQGDGTWSPRTPSCGDICNFPPKIAHGHYKQSSSYSFFKEEIIYECDKGYILVGQAKLSCSYSHWSAPAPQCKALCRKPELVNGRLSVDKDQYVEPENVTIQCDSGYGVVGPQSITCSGNRTWYPEVPKCEWETPEGCEQVLTGKRLMQCLPNPEDVKMALEVYKLSLEIEQLELQRDSARQSTLDKEL
B3: recombinant C4BP α-chain D284E (natural protein, human, UniProt P04003 49-597, looked up)
chain: NCGPPPTLSFAAPMDITLTETRFKTGTTLKYTCLPGYVRSHSTQTLTCNSDGEWVYNTFCIYKRCRHPGELRNGQVEIKTDLSFGSQIEFSCSEGFFLIGSTTSRCEVQDRGVGWSHPLPQCEIVKCKPPPDIRNGRHSGEENFYAYGFSVTYSCDPRFSLLGHASISCTVENETIGVWRPSPPTCEKITCRKPDVSHGEMVSGFGPIYNYKDTIVFKCQKGFVLRGSSVIHCDAESKWNPSPPACEPNSCINLPDIPHASWETYPRPTKEDVYVVGTVLRYRCHPGYKPTTDEPTTVICQKNLRWTPYQGCEALCCPEPKLNNGEITQHRKSRPANHCVYFYGDEISFSCHETSRFSAICQGDGTWSPRTPSCGDICNFPPKIAHGHYKQSSSYSFFKEEIIYECDKGYILVGQAKLSCSYSHWSAPAPQCKALCRKPELVNGRLSVDKDQYVEPENVTIQCDSGYGVVGPQSITCSGNRTWYPEVPKCEWETPEGCEQVLTGKRLMQCLPNPEDVKMALEVYKLSLEIEQLELQRDSARQSTLDKEL
B4: recombinant C4BP α-chain I126T (natural protein, human, UniProt P04003 49-597, looked up)
chain: NCGPPPTLSFAAPMDITLTETRFKTGTTLKYTCLPGYVRSHSTQTLTCNSDGEWVYNTFCIYKRCRHPGELRNGQVETKTDLSFGSQIEFSCSEGFFLIGSTTSRCEVQDRGVGWSHPLPQCEIVKCKPPPDIRNGRHSGEENFYAYGFSVTYSCDPRFSLLGHASISCTVENETIGVWRPSPPTCEKITCRKPDVSHGEMVSGFGPIYNYKDTIVFKCQKGFVLRGSSVIHCDADSKWNPSPPACEPNSCINLPDIPHASWETYPRPTKEDVYVVGTVLRYRCHPGYKPTTDEPTTVICQKNLRWTPYQGCEALCCPEPKLNNGEITQHRKSRPANHCVYFYGDEISFSCHETSRFSAICQGDGTWSPRTPSCGDICNFPPKIAHGHYKQSSSYSFFKEEIIYECDKGYILVGQAKLSCSYSHWSAPAPQCKALCRKPELVNGRLSVDKDQYVEPENVTIQCDSGYGVVGPQSITCSGNRTWYPEVPKCEWETPEGCEQVLTGKRLMQCLPNPEDVKMALEVYKLSLEIEQLELQRDSARQSTLDKEL
B5: recombinant C4BP α-chain I224T (natural protein, human, UniProt P04003 49-597, looked up)
chain: NCGPPPTLSFAAPMDITLTETRFKTGTTLKYTCLPGYVRSHSTQTLTCNSDGEWVYNTFCIYKRCRHPGELRNGQVEIKTDLSFGSQIEFSCSEGFFLIGSTTSRCEVQDRGVGWSHPLPQCEIVKCKPPPDIRNGRHSGEENFYAYGFSVTYSCDPRFSLLGHASISCTVENETTGVWRPSPPTCEKITCRKPDVSHGEMVSGFGPIYNYKDTIVFKCQKGFVLRGSSVIHCDADSKWNPSPPACEPNSCINLPDIPHASWETYPRPTKEDVYVVGTVLRYRCHPGYKPTTDEPTTVICQKNLRWTPYQGCEALCCPEPKLNNGEITQHRKSRPANHCVYFYGDEISFSCHETSRFSAICQGDGTWSPRTPSCGDICNFPPKIAHGHYKQSSSYSFFKEEIIYECDKGYILVGQAKLSCSYSHWSAPAPQCKALCRKPELVNGRLSVDKDQYVEPENVTIQCDSGYGVVGPQSITCSGNRTWYPEVPKCEWETPEGCEQVLTGKRLMQCLPNPEDVKMALEVYKLSLEIEQLELQRDSARQSTLDKEL
B6: recombinant C4BP α-chain G423E (natural protein, human, UniProt P04003 49-597, looked up)
chain: NCGPPPTLSFAAPMDITLTETRFKTGTTLKYTCLPGYVRSHSTQTLTCNSDGEWVYNTFCIYKRCRHPGELRNGQVEIKTDLSFGSQIEFSCSEGFFLIGSTTSRCEVQDRGVGWSHPLPQCEIVKCKPPPDIRNGRHSGEENFYAYGFSVTYSCDPRFSLLGHASISCTVENETIGVWRPSPPTCEKITCRKPDVSHGEMVSGFGPIYNYKDTIVFKCQKGFVLRGSSVIHCDADSKWNPSPPACEPNSCINLPDIPHASWETYPRPTKEDVYVVGTVLRYRCHPGYKPTTDEPTTVICQKNLRWTPYQGCEALCCPEPKLNNGEITQHRKSRPANHCVYFYGDEISFSCHETSRFSAICQGDGTWSPRTPSCEDICNFPPKIAHGHYKQSSSYSFFKEEIIYECDKGYILVGQAKLSCSYSHWSAPAPQCKALCRKPELVNGRLSVDKDQYVEPENVTIQCDSGYGVVGPQSITCSGNRTWYPEVPKCEWETPEGCEQVLTGKRLMQCLPNPEDVKMALEVYKLSLEIEQLELQRDSARQSTLDKEL
B7: recombinant C4BP α-chain I300T (natural protein, human, UniProt P04003 49-597, looked up)
chain: NCGPPPTLSFAAPMDITLTETRFKTGTTLKYTCLPGYVRSHSTQTLTCNSDGEWVYNTFCIYKRCRHPGELRNGQVEIKTDLSFGSQIEFSCSEGFFLIGSTTSRCEVQDRGVGWSHPLPQCEIVKCKPPPDIRNGRHSGEENFYAYGFSVTYSCDPRFSLLGHASISCTVENETIGVWRPSPPTCEKITCRKPDVSHGEMVSGFGPIYNYKDTIVFKCQKGFVLRGSSVIHCDADSKWNPSPPACEPNSCTNLPDIPHASWETYPRPTKEDVYVVGTVLRYRCHPGYKPTTDEPTTVICQKNLRWTPYQGCEALCCPEPKLNNGEITQHRKSRPANHCVYFYGDEISFSCHETSRFSAICQGDGTWSPRTPSCGDICNFPPKIAHGHYKQSSSYSFFKEEIIYECDKGYILVGQAKLSCSYSHWSAPAPQCKALCRKPELVNGRLSVDKDQYVEPENVTIQCDSGYGVVGPQSITCSGNRTWYPEVPKCEWETPEGCEQVLTGKRLMQCLPNPEDVKMALEVYKLSLEIEQLELQRDSARQSTLDKEL

target: recombinant C4BP α-chain P4Q (human) (UniProt P04003); assay: non-reducing SDS-PAGE

Question: Which stoichiometry N does the source give for “recombinant C4BP α-chain P4Q (from UniProt P04003 49-597) (natural protein)” here?
Answer: 6

Target: the molecule itself
Assay: non-reducing SDS-PAGE

Question: With B1 as the molecule, how does the “stoichiometry N” value read?
Answer: 6

Question: Which “stoichiometry N” value does the source give for B2 here?
Answer: 6

Question: Which “stoichiometry N” value does the source give for B3 here?
Answer: 6

Question: Which “stoichiometry N” value does the source give for B4 here?
Answer: 6

Question: B5 was tested. Which “stoichiometry N” value did it give?
Answer: 6

Question: With B6 as the molecule, how does the “stoichiometry N” value read?
Answer: 6

Question: How did the “stoichiometry N” value turn out when B7 was run?
Answer: 6
